Assay results taken from patent US20240285790A1 (HENRY M JACKSON FOUNDATION FOR THE ADVANCEMENT OF MILITARY …, published 2024).

Target: HIV-1 JRFL Env (full length), on infected primary CD4+ T cells and on virions (HIV-1 JRFL, UniProt P20871 32-503; P20871 504-848)
Experiment: cell-based or functional assay

B1: A32 antibody (antibody, V domains shown)
VH: QVQLQESGPGLVKPSQTLSLSCTVSGGSSSSGAHYWSWIRQYPGKGLEWIGYIHYSGNTYYNPSLKSRITISQHTSENQFSLKLNSVTVADTAVYYCARGTRLRTLRNAFDIWGQGTMVTVSS
VL: VLTQPPSASGSPGQSVTISCTGTSSDVGGYNYVSWYQHHPGKAPKLIISEVNNRPSGVPDRFSGSKSGNTASLTVSGLQAEDEAEYYCSSYTDIHNFVFGGGTKLTVLG
- Neutralization IC50 against JRFL (A32 + sCD4 mix): > 10 µg/mL
- Neutralization IC50 against JRFL (A32 antibody alone): > 10 µg/mL

B2: X5 antibody (antibody, V domains shown)
VH: VQLLEQSGAEVKKPGSSVQVSCKASGGTFSMYGFNWVRQAPGHGLEWMGGIIPIFGTSNYAQKFRGRVTFTADQATSTAYMELTNLRSDDTAVYYCARDFGPDWEDGDSYDGSGRGFFDFWGQGTLVTVSS
VL: ELVLTQSPGTLSLSAGERATLSCRASQSVSSGSLAWYQQKPGQAPRLLIYGASTRATGIPDRFSGSGSGTDFTLTIGRLEPEDLAVYYCQQYGTSPYTFGQGTKLEIKR
- Neutralization IC50 against JRFL (X5 + sCD4 mix): 3.23 µg/mL
- Neutralization IC50 against JRFL (X5 antibody alone): > 10 µg/mL

B3: N5-i5 antibody (antibody, V domains shown)
VH: EVQLVESGGGLVQPGGSLRLSCAASGFTFSTYAMSWVRQAPGKGLEWVSSINNSGRNTFSADSVKGRFTISRDNSKNTLFLVMNSLRAEDTAVYYCAKDLRLGGGSDYWGQGTLVTVSS
VL: QSALTQPASVSGSPGQSITISCTGTSSDVGSYNFVSWYQQHPGKAPKLMIYEVSERPSGISNRFSGSKSGNTASLTISGLQAEDEADYYCSSYAGSTTFRVFGGGTKLTVRG
- Neutralization IC50 against JRFL (N5-i5 + sCD4 mix): > 10 µg/mL
- Neutralization IC50 against JRFL (N5-i5 antibody alone): > 10 µg/mL
